Laboratory results: PMC12500691
Where “and” joins values, the source holds several entries; their conditions need not be identical. Equal values may be shown once.

Key:
[1] = biological target: SARS-CoV-2 SpikeHis (SARS-CoV-2 (Wuhan variant)) (UniProt P0DTC2); test: SPR
[2] = biological target: SARS-CoV-2 Spike_(Strep) (SARS-CoV-2 (Wuhan variant)) (UniProt P0DTC2); test: SPR
[3] = biological target: SARS-CoV-2 extended S1 subunit (SARS-CoV-2 (Wuhan variant)) (UniProt P0DTC2); test: SPR
[4] = biological target: SARS-CoV-2 Spike_(Strep) (SARS-CoV-2 (Wuhan variant)) (UniProt P0DTC2); test: negative stain electron microscopy

Sequence of human angiotensin converting enzyme 2 (Q9BYF1 20-611): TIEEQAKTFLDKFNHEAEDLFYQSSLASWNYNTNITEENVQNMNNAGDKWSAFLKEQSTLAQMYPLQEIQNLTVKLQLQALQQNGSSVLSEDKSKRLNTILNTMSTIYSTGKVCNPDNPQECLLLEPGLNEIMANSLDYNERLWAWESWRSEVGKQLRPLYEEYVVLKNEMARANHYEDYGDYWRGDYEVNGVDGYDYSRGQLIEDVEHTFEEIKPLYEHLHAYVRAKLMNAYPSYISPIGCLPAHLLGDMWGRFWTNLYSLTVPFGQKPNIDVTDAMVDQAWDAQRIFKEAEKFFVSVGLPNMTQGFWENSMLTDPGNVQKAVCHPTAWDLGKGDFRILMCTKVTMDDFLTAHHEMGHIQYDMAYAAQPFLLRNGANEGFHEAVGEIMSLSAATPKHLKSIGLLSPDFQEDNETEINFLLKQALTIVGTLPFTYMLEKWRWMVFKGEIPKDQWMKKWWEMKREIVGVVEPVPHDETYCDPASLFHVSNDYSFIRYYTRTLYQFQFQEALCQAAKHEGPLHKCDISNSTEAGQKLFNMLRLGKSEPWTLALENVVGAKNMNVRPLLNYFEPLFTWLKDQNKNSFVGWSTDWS

| Substance | Kd [1] | IC50 [2] | Kd [2] | stoichiometry N [2] | IC50 [3] | Kd [3] | stoichiometry N [4] |
| --- | --- | --- | --- | --- | --- | --- | --- |
| LL-37 (peptide) | 410 nM | 670 nM | 410 nM | 6 | 160 nM | 200 nM | – |
| human angiotensin converting enzyme 2 (from UniProt Q9BYF1-1 20-611) (receptor) | – | – | – | – | – | 610 nM | – |
| gold-labeled LL-37 (peptide) | – | – | – | – | – | – | 4 and 7 |
